Assay results: patent US6498233 (dated 1996)

Target: p185 erbB-2 on SK-BR-3 human breast carcinoma cells (human, UniProt P04626 23-1255)

B1: scFv(FRP5)-DETA-DGAL4 protein (scFv)
chain: DYKDDDDKLHHHHHHKLQVQLQQSGPELKKPGETVKISCKASGYPFTNYGMNWVKQAPGQGLKWMGWINTSTGESTFADDFKGRFDFSLETSANTAYLQINNLKSEDMATYFCARWEVYHGYVPYWGQGTTVTVSSGGGGSGGGGSGGGGSDIQLTQSHKFLSTSVGDRVSITCKASQDVYNAVAWYQQKPGQSPKLLIYSASSRYTGVPSRFTGSGSGPDFTFTISSVQAEDLAVYFCQQHFRTPFTFGSGTKLEIKALEGGSLAALTAHQACHLPLETFTRHRQPRGWEQLEQCGYPVQRLVALYLAARLSWNQVDQVIRNALASPGSGGDLGEAIREQPEQARLALTLAAAESERFVRQGTGNDEAGAANADEKLLSSIEQACDICRLKKLKCSKEKPKCAKCLKNNWECRYSPKTKRSPLTRAHLTEVESRLERLEQLFLLIFPREDLDMILKMDSLQDIKALLTGLFVQDNVNKDAVTDRLASVETDMPLTLRQHRISATSSSEESSNKGQRQLTVSSSDYKDEL
EC50: 20 nM
